# Experimental data from article PMC6449974.
# pKd: −log10 of the molar value. Like-named read-outs stand apart in the source and are kept apart here.
# Assays:
# [1] = biological target: biotinylated CA K158C (unassembled HIV-1 CA) (HIV-1); assay: SPR; Biacore S200; biotinylated CA K158C or biotinylated CA hexamer immobilised on streptavidin-modified CM5 chip; CypA injected at 1.1-72.8 uM; 10 mM HEPES pH 8, 0.005% Tween 20, 2 mM EDTA, 150 mM NaCl; equilibrium analysis, single experiments
# [2] = biological target: biotinylated cross-linked CA hexamer (CA A14C/E45C/W184A/M185A) (HIV-1); assay: as above
# [3] = biological target: cross-linked self-assembled CA tubes (CA A14C/E45C co-assembled with CA K158C-AF488) (HIV-1); assay: TIRF fluorescence microscopy binding assay; cross-linked CA tubes held on the cover slip by an anti-p24 antibody; CypA 1-50 uM (1 uM AF647-CypA plus unlabelled CypA) flowed in; 50 mM Tris pH 8, 150 mM NaCl; equilibrium binding model on the CypA:CA molar ratio
# [4] = biological target: native HIV-1 capsid (wild type CA lattice of authentic viral cores) (HIV-1 (pNL4.3-iGFP-ΔEnv and psPAX2)); assay: TIRF fluorescence microscopy binding assay
# [5] = biological target: native HIV-1 capsid (wild type CA lattice of authentic viral cores) (HIV-1 (pNL4.3-iGFP-ΔEnv and psPAX2)); assay: TIRF fluorescence microscopy binding assay; remark: listed apart in the source
Substance,pKd [1],pKd [2],pKd [3],stoichiometry N (molar ratio of CypA:CA when saturated) [3],pKd [4],stoichiometry N ([4]; scale: CypA loops occupied at saturation per capsid),stoichiometry N ([4]; scale: CypA molecules bound per capsid at saturation),pKd [5]
CypA P29K (enzyme),4.69,4.68,4.79,0.32,,,,
CypA A25D (enzyme),4.65,4.68,4.76,0.39,4.95,877,688,5.06
CypA K30D (enzyme),4.42,4.45,4.77,0.39,,,,
CypA K27D (enzyme),4.55,4.66,4.75,0.24,,,,
